Measured values as given in publication PMC4850456, “Phenylbutazone induces expression of MBNL1 and suppresses formation of MBNL1-CUG RNA foci in a mouse model of myotonic dystrophy”.

T1: GST-MBNL1 (1-260) (UniProt Q9NR56 1-260)
T1 sequence: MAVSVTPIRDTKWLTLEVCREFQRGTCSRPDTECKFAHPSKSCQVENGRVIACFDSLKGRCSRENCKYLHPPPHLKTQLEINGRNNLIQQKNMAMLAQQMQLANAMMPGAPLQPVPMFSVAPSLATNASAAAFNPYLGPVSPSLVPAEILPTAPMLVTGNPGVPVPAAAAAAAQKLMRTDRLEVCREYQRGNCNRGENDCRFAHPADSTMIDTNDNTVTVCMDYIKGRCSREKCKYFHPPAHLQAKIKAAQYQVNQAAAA


Key:
GST-MBNL1 (1-260) = target: T1, GST-MBNL1 (1-260); assay: EMSA; no PBZ; 10 mM Tris-HCl pH 7.5, 50 mM KCl, 1 mM DTT, room temperature 30 min, 20 ul; 6 ug protein, RNA 2.5 pmol/ul; then PBZ 15 min at room temperature; conditions: protein: recombinant; tags: GST (N-terminal fusion); label: 5'-biotin
GST-PTBP1 = GST-PTBP1 (UniProt P26599 1-557); assay: as above; conditions: protein: recombinant; tags: GST (pGEX-6P-1); label: 5'-biotin
GST-PTBP1, sequence (P26599 whole entry): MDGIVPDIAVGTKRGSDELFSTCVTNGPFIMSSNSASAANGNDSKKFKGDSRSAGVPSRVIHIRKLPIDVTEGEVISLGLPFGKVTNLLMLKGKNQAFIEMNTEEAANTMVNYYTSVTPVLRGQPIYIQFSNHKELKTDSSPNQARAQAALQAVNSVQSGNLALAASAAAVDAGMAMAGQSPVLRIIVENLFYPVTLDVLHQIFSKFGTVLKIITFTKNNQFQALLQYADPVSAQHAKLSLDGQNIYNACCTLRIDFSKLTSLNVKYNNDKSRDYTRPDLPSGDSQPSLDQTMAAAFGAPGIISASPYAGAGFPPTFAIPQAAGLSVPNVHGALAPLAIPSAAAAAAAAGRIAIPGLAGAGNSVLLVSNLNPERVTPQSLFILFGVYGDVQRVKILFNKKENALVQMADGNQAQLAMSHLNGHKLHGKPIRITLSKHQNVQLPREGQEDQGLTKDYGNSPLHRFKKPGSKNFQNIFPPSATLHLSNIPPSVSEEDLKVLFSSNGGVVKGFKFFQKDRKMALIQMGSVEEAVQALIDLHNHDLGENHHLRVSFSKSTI

Binder | binding result (GST-MBNL1 (1-260)) | binding result (GST-PTBP1)
GCCUGCUGCUGCUGCUGCUGCUGCUGCUGCUGGC (structured_RNA) [CUG repeat RNA probe] | binds | –
UUUCUCCUUUUCUGUGGGUGGACAGGGUGACAUGGUA (ssRNA) [CHRNA1 polypyrimidine tract RNA probe] | – | binds
